Data on 1 substance can be found in publication PMC8178393.

The target in the experiment is pyruvate kinase isozyme M2 (mouse (endogenous in splenic CD4+ T cells polarized into Th17 cells)) (UniProt P52480). The experiment is described as follows: cross-linking; Th17 cells treated with or without HCA for 24 h; cells washed with ice-cold PBS pH 8.0, disuccinimidyl suberate at 1 uM for 30 min at room temperature, quenched with 10 mM Tris, lysed, Western blot for monomeric and tetrameric PKM2. (In general: Immunoblotting shows a protein as a band on a membrane.)

Chain of pyruvate kinase isozyme M2, P52480 1-531 (enzyme; other documents disagree on this pair) (P52480 whole entry): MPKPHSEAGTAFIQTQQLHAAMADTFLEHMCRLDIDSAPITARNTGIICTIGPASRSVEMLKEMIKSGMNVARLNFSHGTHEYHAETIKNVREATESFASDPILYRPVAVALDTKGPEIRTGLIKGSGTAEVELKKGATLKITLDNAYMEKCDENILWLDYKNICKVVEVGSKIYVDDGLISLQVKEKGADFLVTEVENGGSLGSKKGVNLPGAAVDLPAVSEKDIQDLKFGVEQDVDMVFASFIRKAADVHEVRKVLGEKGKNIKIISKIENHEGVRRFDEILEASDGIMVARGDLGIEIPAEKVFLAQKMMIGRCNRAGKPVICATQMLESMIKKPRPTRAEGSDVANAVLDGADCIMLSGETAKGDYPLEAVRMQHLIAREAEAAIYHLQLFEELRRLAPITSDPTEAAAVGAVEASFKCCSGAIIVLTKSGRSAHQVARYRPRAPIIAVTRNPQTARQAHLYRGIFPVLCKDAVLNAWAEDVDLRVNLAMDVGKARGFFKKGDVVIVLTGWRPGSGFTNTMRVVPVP

For “pyruvate kinase isozyme M2, P52480 1-531 (enzyme; other documents disagree on this pair)”, the stoichiometry N (commonly a count of units in the complex or per binding partner) came out at 4.
